According to US20160115235A1 (ARES TRADING S A, published 2016):
Residue numbers refer to the chain shown, from its start. One block for each binder: values may come before it.

Columns and labels:
human CXCR5 [1] = biological target: T1, human CXCR5 (human, UniProt P32302 1-372); assay: KinExA, IgG2 mAb equilibrated with HEK-293 cells expressing human CXCR5, n-curve analysis
T1 construct: Full length, on stably transfected cells (HEK-293, L1.2, R1610 and others), made with or without a C-terminal tag, or native on primary human B cells; also called hCXCR5; BLR-1
T1 sequence: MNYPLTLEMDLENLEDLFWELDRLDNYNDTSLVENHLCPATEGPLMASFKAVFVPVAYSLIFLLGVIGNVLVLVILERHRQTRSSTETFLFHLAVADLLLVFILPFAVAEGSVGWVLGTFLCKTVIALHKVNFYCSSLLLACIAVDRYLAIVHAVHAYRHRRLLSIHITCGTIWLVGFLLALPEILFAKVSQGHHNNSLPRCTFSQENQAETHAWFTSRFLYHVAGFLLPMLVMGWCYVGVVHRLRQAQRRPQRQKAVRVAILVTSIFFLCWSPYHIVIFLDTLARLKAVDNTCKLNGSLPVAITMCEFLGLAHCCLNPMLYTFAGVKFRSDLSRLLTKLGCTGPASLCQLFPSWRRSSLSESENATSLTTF
Method: Kinetic Exclusion Assay (KinExA) was used to determine the concentration of the free antibody that remains in solution after equilibrium has been established between the fully human IgG2 (subtype HC2h, as described in WO2009010290) anti-CXCR5 40C01 antibody variants and human CXCR5 expressed on the cell surface of stably transfected HEK-293 cells, from which the equilibrium dissociation constant (Kd) was determined. This method provides a true measure of the affinity/avidity of the antibody to integral membrane proteins like GPCRs.
HEK-293 cells, stably expressing human CXCR5, an integral membrane protein with 7 trans membrane domains, were harvested using Accutase cell detachment solution, resuspended at 2×10⁶ cells/ml and serially diluted 1 in 2 in 15 falcon tubes using KinExA buffer (PBS containing 1 mg/ml BSA and 0.02% NaN₃). An appropriate constant concentration of purified mAb was made in KinExA buffer and an equal volume of the mAb was mixed with the serially diluted cells. […] The cells were then centrifuged and the free mAb present in the supernatant was measured by KinExA using PMMA beads (Sapidyne Instruments, cat#440198) coated with goat anti-human IgG (H+L) (Jackson ImmunoResearch, cat#109-005-003) and DyLight 649-conjugated anti-human secondary antibody (Jackson ImmunoResearch, Goat anti-human Fc, cat#109-495-098) used at 1 μg/ml in KinExA buffer. […]

human CXCR5 [2] = biological target: T1, human CXCR5; assay: cell-based or functional assay
human CXCR5 [3] = biological target: T1, human CXCR5; assay: cell-based or functional assay; remark: listed apart in the source
[4] = biological target: T2, cynomolgus monkey (Macaca fascicularis) CXCR5 (cynomolgus monkey (Macaca fascicularis), UniProt P32302 1-372 (human entry)); assay: cell-based or functional assay
T2 chain: T1 sequence with W19L, L21F, R23K, L24F, L180F, G193A, H195P, A285V, K295E, R357K

human CXCR5 [5] = biological target: T1, human CXCR5; assay: cell-based or functional assay; remark: listed apart in the source
[6] = biological target: T2, cynomolgus monkey (Macaca fascicularis) …; assay: cell-based or functional assay
[7] = biological target: T2, cynomolgus monkey (Macaca fascicularis) …; assay: cell-based or functional assay
human CXCR5 [8] = biological target: T1, human CXCR5; assay: flow cytometry, Alexa Fluor 647 labelled mAb on CD19-gated human B cells in whole blood
Method: (§1) 40C01-VH1-Vk3 and VH2-Vk3 variants were labelled with Alexa Fluor 647 dye using monoclonal antibody labelling kit from Invitrogen (Cat #A20186). Blood was collected in sodium-heparinised tubes and rested for 2 h at RT. Sodium azide (NaN₃) was then added to whole blood to a final concentration of 0.01%. Serial 1 in 3 dilutions of Alexa-Fluor 647 labelled-mAbs ranging from 60 μg/ml to 3 ng/ml were added to blood samples and incubated for 30 min at RT. Phycoerythrin (PE) labelled anti-CD19 (BD Pharmingen, cat#555413) and anti-human CXCR2 (R&D Systems, cat #FAB331P) mAbs and their respective isotype controls were used for gating B cells and monitoring CXCR2 expression on granulocytes, respectively. Labelled red blood cells were then lysed using the human erythrocyte lysing kit from R&D Systems (Cat # WL1000) and the blood cells resuspended in FACS buffer (PBS-1% BSA, 0.1% NaN₃) and analysed by flow cytometry on FACS Calibur 3 (BD Biosciences). The EC₅₀ and ECB, values were calculated by plotting the FL4 fluorescence (emission of Alexa Fluor 647 dye) as a function of the antibody concentration. […] No binding of the two 40C01 variants was detected on the granulocyte population which expresses CXCR2 (neutrophils).

human CXCR2 = biological target: T3, human CXCR2 (human, UniProt P25025 1-360); assay: flow cytometry, Alexa-Fluor 647 labelled mAb in human whole blood
T3 construct: whole, on cells; Native on the granulocyte population of human whole blood
T3 sequence (looked up): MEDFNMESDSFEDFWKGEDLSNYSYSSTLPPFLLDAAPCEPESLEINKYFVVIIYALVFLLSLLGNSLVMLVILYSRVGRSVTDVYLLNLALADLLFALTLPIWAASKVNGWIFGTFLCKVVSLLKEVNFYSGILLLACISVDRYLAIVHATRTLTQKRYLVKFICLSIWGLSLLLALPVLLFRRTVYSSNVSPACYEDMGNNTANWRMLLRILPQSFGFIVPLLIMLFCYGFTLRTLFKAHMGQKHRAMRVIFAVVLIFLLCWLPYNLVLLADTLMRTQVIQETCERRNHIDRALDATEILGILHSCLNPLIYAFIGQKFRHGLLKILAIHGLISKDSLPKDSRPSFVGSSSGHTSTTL
Method: as §1

human CXCR5 [9] = biological target: T1, human CXCR5; assay: flow cytometry, Alexa Fluor 647 labelled mAb on HEK-293 cells stably transfected with human CXCR5; 40C01-VH1-Vk3, Alexa Fluor 647 labelled, HEK-293 cells with human CXCR5
Method: (§2) Anti-CXCR5 40C01-VH1-Vk3 and VH2-Vk3 variants were labelled with Alexa Fluor 647 dye using monoclonal antibody labelling kit from Invitrogen (Cat #A20186). Binding of labelled mAbs to HEK-293 cells stably transfected with human CXCR5 was examined by a direct immunofluorescence assay. A total of 1×10⁵ stable HEK-293 cells over-expressing human CXCR5 were incubated with 1 in 3 serially diluted Alexa Fluor 647 mAbs ranging from 60 μg/ml to 0.33 ng/ml in FACS buffer (PBS containing 1% BSA and 0.1% NaN₃) for 1 h on ice. Cells were washed twice with FACS buffer and analyzed on FACSCalbur flow cytometer (BD Biosciences).

human CXCR5 [10] = biological target: T1, human CXCR5; assay: flow cytometry, Alexa Fluor 647 labelled mAb on HEK-293 cells stably transfected with human CXCR5; 40C01-VH2-Vk3, Alexa Fluor 647 labelled, HEK-293 cells with human CXCR5
Method: as §2

B1: anti-CXCR5 40C01-VH1-Vk3-IgG2_DI-NQ-HC2h (antibody)
heavy: EVQLLESGGGLVQPGGSLRLSCAASGFTFSRYVMVWVRQAPGKGLEWVSGISPSGGVTRYAASVKGRFTISRDNSKNTLYLQMNSLRAEDTAVYYCARIRKEMTTISYFFDYWGQGTLVTVSSASTKGPSVFPLAPCSRSTSESTAALGCLVKDYFPEPVTVSWNSGALTSGVHTFPAVLQSSGLYSLSSVVTVPSSNFGTQTYTCNVDHKPSNTKVDKTVEPKSSDKTHTCPPCPAPPVAGPSVFLFPPKPKDTLMISRTPEVTCVVVDVSHEDPEVQFNWYVDGVEVHNAKTKPREEQAQSTFRVVSVLTVVHQDWLNGKEYKCKVSNKGLPAPIEKTISKTKGQPREPQVYTLPPSREEMTKNQVSLTCLVKGFYPSDIAVEWESNGQPENNYKTTPPMLDSDGSFFLYSKLTVDKSRWQQGNVFSCSVMHEALHNHYTQKSLSLSPG
light: DIQMTQSPSSLSASVGDRVTITCRASQGVDAYVAWYQQKPGKVPKLLIYSTSTLASGVPSRFSGSGSGTDFTLTISSLQPEDVATYYCQSHNAAVVTFGQGTRLEIKRTVAAPSVFIFPPSDEQLKSGTASVVCLLNNFYPREAKVQWKVDNALQSGNSQESVTEQDSKDSTYSLSSTLTLSKADYEKHKVYACEVTHQGLSSPVTKSFNRGEC
notes: Whole antibody, modified human IgG2 (subtype HC2h, WO2009010290), kappa light chain; also called 40C01-VH1-Vk3 as IgG2; VH1-Vk3 (isotype 2)
- Kd (human CXCR5 [1]): 0.0154 nM
- efficacy of inhibition of CXCL13-stimulated L1.2-CXCR5 chemotaxis (human CXCR5 [2]): 100%
- IC50, inhibition of CXCL13-induced L1.2-CXCR5 chemotaxis (human CXCR5 [3]): 1.15 nM
- IC50, inhibition of ERK phosphorylation in whole blood (B cells, CXCL13-stimulated) [4]: 0.195 nM
- IC50, inhibition of ERK phosphorylation in whole blood (B cells, CXCL13-stimulated) (human CXCR5 [5]): 0.736 nM

B2: anti-CXCR5 40C01-VH1-Vk3-IgG1 (antibody)
heavy: not shown
light: B1 light
- efficacy of inhibition of CXCL13-stimulated L1.2-CXCR5 chemotaxis [6]: 100%
- IC50, inhibition of human CXCR5-L1.2 cell chemotaxis (human CXCR5 [2]): 0.38 nM
- efficacy of inhibition of CXCL13-stimulated L1.2-CXCR5 chemotaxis (human CXCR5 [2]): 100%
- mean IC50, inhibition of CXCL13-stimulated chemotaxis of primary human B cells in human serum (human CXCR5 [2]): 1.89 nM
- IC50, inhibition of CXCL13-induced L1.2-CXCR5 chemotaxis [7]: 0.19 nM
- IC50, inhibition of CXCL13-induced L1.2-CXCR5 chemotaxis (human CXCR5 [3]): 1.81 nM
- IC50, inhibition of ERK phosphorylation in whole blood (B cells, CXCL13-stimulated) (human CXCR5 [5]): 0.17 nM

B4: anti-CXCR5 40C01-VH1-Vk3 variant (isotype not stated in the example) (antibody, V domains shown)
VH: EVQLLESGGGLVQPGGSLRLSCAASGFTFSRYVMVWVRQAPGKGLEWVSGISPSGGVTRYAASVKGRFTISRDNSKNTLYLQMNSLRAEDTAVYYCARIRKEMTTISYFFDYWGQGTLVTVSS
VL: DIQMTQSPSSLSASVGDRVTITCRASQGVDAYVAWYQQKPGKVPKLLIYSTSTLASGVPSRFSGSGSGTDFTLTISSLQPEDVATYYCQSHNAAVVTFGQGTRLEIK
notes: also called Alexa-Fluor 647 labelled 40C01-VH1-Vk3
- EC50 (human CXCR5 [8]): 1.92 nM
- binding result (human CXCR2): no binding (tested: 60 µg/ml to 3 ng/ml tested)
- EC50 (human CXCR5 [9]): 2.26 nM

B5: anti-CXCR5 40C01-VH2-Vk3 as IgG1 (antibody)
VH: B4 VH with Y32S, M103K
light: B1 light
- efficacy of inhibition of CXCL13-stimulated L1.2-CXCR5 chemotaxis [6]: 100%
- IC50, inhibition of human CXCR5-L1.2 cell chemotaxis (human CXCR5 [2]): 0.05 nM
- efficacy of inhibition of CXCL13-stimulated L1.2-CXCR5 chemotaxis (human CXCR5 [2]): 100%
- mean IC50, inhibition of CXCL13-stimulated chemotaxis of primary human B cells in human serum (human CXCR5 [2]): 0.34 nM
- IC50, inhibition of CXCL13-induced L1.2-CXCR5 chemotaxis [7]: 0.17 nM
- IC50, inhibition of CXCL13-induced L1.2-CXCR5 chemotaxis (human CXCR5 [3]): 0.098 nM
- IC50, inhibition of ERK phosphorylation in whole blood (B cells, CXCL13-stimulated) (human CXCR5 [5]): 0.45 nM

Now from value to binder, other results behind:

- Kd (human CXCR5 [1]): 0.047 nM
- efficacy of inhibition of CXCL13-stimulated L1.2-CXCR5 chemotaxis (human CXCR5 [2]): 100%
- IC50, inhibition of CXCL13-induced L1.2-CXCR5 chemotaxis (human CXCR5 [3]): 0.108 nM
- IC50, inhibition of ERK phosphorylation in whole blood (B cells, CXCL13-stimulated) [4]: 1.57 nM
- IC50, inhibition of ERK phosphorylation in whole blood (B cells, CXCL13-stimulated) (human CXCR5 [5]): 0.88 nM
B3: anti-CXCR5 40C01-VH2-Vk3 as IgG2 (antibody)
heavy: B1 heavy with Y32S, M103K
light: B1 light
notes: also called VH2-Vk3 (isotype 2)

- EC50 (human CXCR5 [10]): 4.6 nM
- EC50 (human CXCR5 [8]): 7.22 nM
B6: anti-CXCR5 40C01-VH2-Vk3 variant (isotype not stated in the example) (antibody, V domains shown)
VH: B4 VH with Y32S, M103K
VL: B4 VL
notes: also called Alexa-Fluor 647 labelled 40C01-VH2-Vk3
- binding result (human CXCR2): no binding (tested: 60 µg/ml to 3 ng/ml tested)
